T1: human calcitonin receptor (human, UniProt P30988 25-474)
T1 sequence (looked up): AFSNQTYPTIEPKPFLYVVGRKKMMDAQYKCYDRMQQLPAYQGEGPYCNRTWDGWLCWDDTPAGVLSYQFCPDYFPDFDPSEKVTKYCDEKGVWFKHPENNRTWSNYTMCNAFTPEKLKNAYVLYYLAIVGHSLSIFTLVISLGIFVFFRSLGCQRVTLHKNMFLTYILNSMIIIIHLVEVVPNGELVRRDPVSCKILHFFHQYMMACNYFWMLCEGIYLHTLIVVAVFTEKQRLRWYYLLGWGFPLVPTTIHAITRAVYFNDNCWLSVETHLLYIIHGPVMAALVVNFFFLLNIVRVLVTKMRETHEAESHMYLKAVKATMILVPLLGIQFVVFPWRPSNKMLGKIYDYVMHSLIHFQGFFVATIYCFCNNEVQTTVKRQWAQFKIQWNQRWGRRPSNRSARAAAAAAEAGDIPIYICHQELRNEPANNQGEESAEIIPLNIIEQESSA

Numbered stars: 1 amine (or outer) side, 2 acyl side, 3 side chain; on linkers, the order of the positions; unused ones are H or OH. Bridge positions count the residues as written; N and C are the ends. Side chains are listed from the residue outwards. Ends that are not written are not given here. * marks the point of attachment. C20 diacid = O=C(O)CCCCCCCCCCCCCCCCCCC(=O)*; C18 diacid = O=C(O)CCCCCCCCCCCCCCCCC(=O)*; γGlu = O=C(O)[C@H](CCC(=O)[*:2])N[*:1]; C14 diacid = O=C(O)CCCCCCCCCCCCC(=O)*; AEEA = NCCOCCOCC(=O)O

In this assay the target is T1, human calcitonin receptor. The assay can be described thus: cell-based or functional assay.
For K([γGlu-γGlu-C20 diacid])CNTATCATQRLAEFLRHSSPNFGAIPSSTNVGPHTY-NH2 (disulfide 2-7 (inferred)), the “Ratio hCT/hAmylin funct.” value was determined as 16.4.

With K([AEEA-AEEA-γGlu-C20 diacid])CNTATCATQRLANFLRHSSPNFGAIPSSTPVGSNTY-NH2 (disulfide 2-7 (inferred), also called compound 96), the “Ratio hCT/hAmylin funct.” value is 21.

Regarding K([γGlu-C14 diacid])CNTATCATQRLANFLRHSSPNFGAIPSSTNVGHNTY-NH2 (disulfide 2-7 (inferred)) [N^ε1-[(4S)-4-carboxy-4-(13-carboxytridecanoylamino)butanoyl]-[Arg17,Pro21,Pro27,His34]-h-amylin], the “Ratio hCT/hAmylin funct.” value stood at 38.8.

Take K([γGlu-γGlu-C20 diacid])CNTATCATQRLAHFLRHSSPNFGAIPSSTNVGSNTY-NH2 (disulfide 2-7 (inferred), also called compound 92): the “Ratio hCT/hAmylin funct.” value was found to be 28.

As to K([AEEA-C20 diacid])CNTATCATQRLANFLRHSSPNFGAIPSSTNVGHNTY-NH2 (disulfide 2-7 (inferred), also called compound 91) [N^ε1-[2-[2-[2-(19-carboxynonadecanoylamino)ethoxy]ethoxy]acetyl]-[Arg17,Pro21,Pro27,His34]-h-amylin], the “Ratio hCT/hAmylin funct.” value came out at 36.9.

Regarding K([γGlu-C18 diacid])CNTATCATQRLANFLRHSSPNFGAIPSSTNVGHNTY-NH2 (disulfide 2-7 (inferred)) [N^ε1-[(4S)-4-carboxy-4-(17-carboxyheptadecanoylamino)butanoyl]-[Arg17,Pro21,Pro27,His34]-h-amylin], the “Ratio hCT/hAmylin funct.” value is 60.9.

Regarding K([γGlu-γGlu-C20 diacid])CNTATCATQRLADFLRHSSPNFGAIPSSTNVGPRTY-NH2 (disulfide 2-7 (inferred), also called compound 130), the “Ratio hCT/hAmylin funct.” value was 44.9.

Take K([AEEA-AEEA-γGlu-C20 diacid])CNTATCATQRLANFLRHSSPNFGAIPSSTNVGHNTY-NH2 (disulfide 2-7 (inferred), also called compound 97): the “Ratio hCT/hAmylin funct.” value is 33.

On to K([γGlu-γGlu-C20 diacid])CNTATCATQRLAEFLRHSSNNPGAILSSTNVGPETY-NH2 (disulfide 2-7 (inferred)), for which the “Ratio hCT/hAmylin funct.” value came out at 17.3.

(Values after US20140087995A1 (published 2014).)
